The target of one assay is T1, 重组CD47-Fc融合蛋白 (human, UniProt Q08722 19-139, limits assumed).
T1 construct: not shown: Fc part
Description: competition ELISA: CD47-Fc coated, antibody blocks binding of SIRPα-His, anti-His-HRP detection.

In assay [1] the target is CD47蛋白 (analyte in the ForteBio assay) (human, UniProt Q08722 19-139, limits assumed). In words: BLI (ForteBio), antibody captured on Protein A sensor, CD47 protein in solution at 6 concentrations.
Another assay addresses CD47-his蛋白 (human). In words: screening ELISA of hybridoma supernatant on coated CD47-his.

Experimental findings from patent CN112048019A (LUNAN PHARMACEUTICAL GROUP CORP, dated 2020) are described below.

CD47蛋白 (analyte in the ForteBio assay), sequence (Q08722 19-139 limits assumed): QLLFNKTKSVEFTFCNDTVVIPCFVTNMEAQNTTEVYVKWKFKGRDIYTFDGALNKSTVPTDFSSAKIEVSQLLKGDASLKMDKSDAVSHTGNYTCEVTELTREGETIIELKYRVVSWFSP
CD47-his蛋白 (human), sequence (chain, as listed by the source limits assumed): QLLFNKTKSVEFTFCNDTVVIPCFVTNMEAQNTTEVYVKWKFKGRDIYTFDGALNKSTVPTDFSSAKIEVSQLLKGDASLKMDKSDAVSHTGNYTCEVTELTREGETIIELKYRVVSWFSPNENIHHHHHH
T1 sequence (Q08722 19-139 limits assumed): as the sequence (Q08722 19-139 limits assumed) above

B1: 抗CD47单克隆抗体3D8 (杂交瘤细胞株3D8, CGMCC No:17293) (antibody, V domains shown)
VH: EVKLQESGAELMKPGASVKISCKATGYTFSRYWIEWVKQRPGHGLEWIGDILPGTSNTNYNEKFKGKATFTADSSSNTAYMQLSSLTSEDSAVYYCARRGLLRFDCWGQGTTVTVSS
VL: DIQLTQSPAIMSASPGEKVTMTCRASSSVSSSYLHWYQQKSGASPKLWIYSSSTLASGVPARFSGSGSGTSYSLTISSVEAEDAATYYCQQYSGYPLTFGSGTKLGIKR
The molecule B1 came in with an EC50 in the assay with 重组CD47-Fc融合蛋白 of 0.17 nM. Besides, in assay [1], the affinity, expressed as Kd, was 0.0129 nM; the dissociation rate constant (koff) stood at 1.1e-05 s⁻¹; the kon came to 853000 M⁻¹ s⁻¹. The binding result with CD47-his蛋白 is “binds”.
